Patent publication US20210147549A1

How the values were obtained:
[1] = molecular target: FcγRIIa H131 (CD32a) on cells (human) (UniProt P12318); test: TR-FRET competition (CisBio) on cells bearing labeled receptor, vs labeled competitor antibody
[2] = molecular target: FcγRIIb on cells (TR-FRET assay) (UniProt P31994); test: as above
[3] = molecular target: FcγRIIIa V158 on cells (TR-FRET assay) (UniProt P08637); test: as above
[4] = molecular target: human recombinant CD64 (Fc gamma receptor I) (human) (UniProt P12314); test: SPR (Biacore T200), construct captured on Protein A, soluble CD64 as analyte
Sequence of human recombinant CD64 (Fc gamma receptor I) (human) (P12314 16-288 limits assumed): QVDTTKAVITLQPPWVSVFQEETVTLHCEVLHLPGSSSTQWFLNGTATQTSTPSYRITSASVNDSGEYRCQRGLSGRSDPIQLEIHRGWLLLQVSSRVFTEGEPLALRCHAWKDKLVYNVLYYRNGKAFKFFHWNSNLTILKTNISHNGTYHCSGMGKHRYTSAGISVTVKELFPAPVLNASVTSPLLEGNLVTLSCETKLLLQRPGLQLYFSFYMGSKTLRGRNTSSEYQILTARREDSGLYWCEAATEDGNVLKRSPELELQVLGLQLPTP

[5] = molecular target: FcγRIIIa on effector cells (Jurkat/FcγRIIIa cells, NK cells) (UniProt P08637); test: cell-based or functional assay
Sequence of FcγRIIIa on effector cells (Jurkat/FcγRIIIa cells, NK cells) (P08637 17-254): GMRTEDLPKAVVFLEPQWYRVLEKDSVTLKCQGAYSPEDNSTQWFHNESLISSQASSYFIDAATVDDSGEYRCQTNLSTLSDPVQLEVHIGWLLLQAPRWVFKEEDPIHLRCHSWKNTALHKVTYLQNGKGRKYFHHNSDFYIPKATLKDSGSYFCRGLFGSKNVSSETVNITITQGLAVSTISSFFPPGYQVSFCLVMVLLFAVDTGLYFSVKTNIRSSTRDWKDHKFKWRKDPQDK

Sequence of FcγRIIa H131 (CD32a) on cells (human) (P12318 34-317): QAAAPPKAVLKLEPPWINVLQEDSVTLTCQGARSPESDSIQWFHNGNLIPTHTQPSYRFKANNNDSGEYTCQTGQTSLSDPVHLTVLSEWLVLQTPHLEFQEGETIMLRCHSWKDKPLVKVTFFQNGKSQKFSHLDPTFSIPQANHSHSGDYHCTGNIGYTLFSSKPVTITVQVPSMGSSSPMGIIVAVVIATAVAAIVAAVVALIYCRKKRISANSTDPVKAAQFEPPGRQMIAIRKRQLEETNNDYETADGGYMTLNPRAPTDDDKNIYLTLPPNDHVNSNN
Sequence of FcγRIIIa V158 on cells (TR-FRET assay) (P08637 17-254 F176V limits assumed): as the sequence (P08637 17-254) above, with F160V counted along it
Sequence of FcγRIIb on cells (TR-FRET assay) (P31994 43-310 limits assumed): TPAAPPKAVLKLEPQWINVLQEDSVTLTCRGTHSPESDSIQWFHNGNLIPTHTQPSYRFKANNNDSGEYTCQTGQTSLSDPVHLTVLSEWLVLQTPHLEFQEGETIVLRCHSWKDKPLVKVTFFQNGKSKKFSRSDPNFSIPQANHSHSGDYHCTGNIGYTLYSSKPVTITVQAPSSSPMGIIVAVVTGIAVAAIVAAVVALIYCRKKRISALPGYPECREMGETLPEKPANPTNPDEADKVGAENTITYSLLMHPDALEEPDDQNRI

Row | Substance | IC50 [1] [nM] | IC50 [2] [nM] | IC50 [3] [nM] | CD64 Valency by SPR [4] | EC50 (nM), Mean; ADCC in KILR-A549 cells with NK cells [5] [nM] | EC50 (nM), Mean; FcyRIIIa signaling in an ADCC reporter assay [5] [nM]
1 | anti-CD20 monoclonal antibody with the CDRs of Gazyva (obinutuzumab) | 1270 | 3290 | 428 | 1.5 | – | –
2 | avelumab anti-PD-L1 monoclonal antibody, afucosylated | – | – | – | – | 0.0054 | –
3 | avelumab anti-PD-L1 monoclonal antibody, fucosylated (S1A-AA-Ave-001, generated in-house) | – | – | – | 1.3 | – | 0.049
